Source: patent publication US20160032005A1 (INSERM INSTITUT NATIONAL DE LA SANTE ET DE LA RECHERCHE …, published 2016)

B1: Vangl2 in COS-7 cells (receptor)
chain: MDTESQYSGYSYKSGHSRSSRKHRDRRDRHRSKSRDGGRGDKSVTIQAPGEPLLDNESTRGDERDDNWGETTTVVTGTSEHSISHDDLTRIAKDMEDSVPLDCSRHLGVAAGATLALLSFLTPLAFLLLPPLLWREELEPCGTACEGLFISVAFKLLILLLGSWALFFRRPKASLPRVFVLRALLMVLVFLLVVSYWLFYGVRILDARERSYQGVVQFAVSLVDALLFVHYLAVVLLELRQLQPQFTLKVVRSTDGASRFYNVGHLSIQRVAVWILEKYYHDFPVYNPALLNLPKSVLAKKVSGFKVYSLGEENSTNNSTGQSRAVIAAAARRRDNSHNEYYYEEAEHERRVRKRRARLVVAVEEAFTHIKRLQEEEQKNPREVMDPREAAQAIFASMARAMQKYLRTTKQQPYHTMESILQHLEFCITHDMTPKAFLERYLAAGPTIQYHKERWLAKQWTLVSEEPVTNGLKDGIVFLLKRQDFSLVVSTKKVPFFKLSEEFVDPKSHKFVMRLQSETSV
notes: Vangl2 immunoprecipitated with 2G4 mAb from COS-7 cells

Columns and labels:
Vangl2 in COS-7 cells = target: B1; experiment: immunoprecipitation with 2G4 mAb, COS-7 cells
[1] = target: GFP-p62 with deletion of a region containing the LIR domain (256-370) (Homo sapiens, UniProt P42212 1-238 = GFP); experiment: immunoprecipitation with 2G4 mAb, COS-7 cells

| Binder | binding result (Vangl2 in COS-7 cells) | binding result [1] |
| --- | --- | --- |
| EGFP-tagged p62 (1-122), PB1 domain alone (other, not shown: EGFP tag) MASLTVKAYLLGKEDAAREIRRFSFCCSPEPEAEAEAAAGPGPCERLLSRVAALFPALRPGGFQAHYRDEDGDLVAFSSDEELTMAMSYVKDDIFRIYIKEKKECRRDHRPPCAQEAPRNMV | no binding |  |
| B1 |  | no binding |
